Laboratory results reported in PMC4660254.

Target: Mud C-terminal coiled-coil domain (Mud^CC) (Drosophila)
Assay: SEC

stoichiometry N: 3
Substance: Mud C-terminal coiled-coil domain (Mud^CC) (domain or fragment)
